Test results taken from US20260258115A1 (MAPP BIOPHARMACEUTICAL, published 2026).

Legend:
[1] = molecular target: RSV postfusion F (postF), F deltaFP (respiratory syncytial virus, UniProt P03420 26-513); experiment: BLI, IgG on sensor, 100 nM antigen
[2] = molecular target: RSV prefusion F (preF), DS-Cav1 (respiratory syncytial virus, UniProt P03420 26-513); experiment: BLI, IgG on sensor, 100 nM antigen
[3] = molecular target: RSV fusion glycoprotein (RSV F) on RSV-A2 virus (respiratory syncytial virus, UniProt P03420 26-574); experiment: cell-based or functional assay

Row | Binder | Kd [1] [nM] | Kd [2] [nM] | Neutralization IC50 (RSV subtype A) [3] [µg/mL]
1 | ADI-41393 (antibody, V domains shown, IgG1; also called Ab 687) VH: QVQLVQSGAEVKKPGESLKISCKGSGYSFTSYWIGWVRQMPGKGLEWMGIIYPGDSDTRYSPSFQGQVTISADKSTSTAYLQWSSLKASDSAMYYCARSEFSSSFDFWGQGTLVTVSS VL: NFMLTQPHSVSESPGKTVTISCTGSSGSIASYYVQWYQLRPGSAPTTVIYEDNQRLSGVPDRFSGSIDSSSNSASLTISGLKTEDEADYYCQSYRSGIPWVFGGGTKLTVL | 0.247 | 1.67 | > 25
2 | ADI-41425 (antibody, V domains shown, IgG1) VH: EVQLLESGPAVVKPTQTLTLTCTVSGLSLSSPRMSVSWIRQPPGKGLEWLARIDWDGDKYYGTSLKTRLSISKDTSKNQVVLTMTNMDPVDTGTYYCAQTSIYASNAYYLARLDPWGQGMLVTVSS VL: EIVMTQSPSLLSASVGDRVTITCRASQNIATYLNWYQQKPGKAPRLLIYAASNLQSGVPSGFSGSGSGTVFTLTISSLQPEDFATYFCQQSYETSLTFGGGTKVEIK | 0.496 | 1.14 | > 25
3 | ADI-41404 (antibody, V domains shown, IgG1; also called Ab 696) VH: QVQLVQSGAEVKKPGSSVKVSCKASGGTFSSYGISWVRQAPGQGLEWMGGIIPIFGTVSYAQKFRGRLTITAHEPTSTAYMDLSSLRSEDTAVYYCARINGRGWELSSLNYYYGMDVWGQGTTVTVSS VL: EIVLTQSPGTLSLSPGERGTLSCRASQSVASSYLAWYQQKPGQAPRLLIYGATSRATGIPDRFSGSGSGTDFTLTISRLEPEDFAVYYCQQYGSSLFTFGGGTKVDIK | 13.6 | 47.4 | > 25
4 | ADI-41431 (antibody, V domains shown, IgG1; also called Ab 715) VH: QVQLVQSGAEVKKPGASVRVSCTASGYRFFTYGITWVRQAPGQGLEWMGWISAYNGNTKFAQKFQGRLTMTTDAPTSTADMELRGLRSDDTAVYYCAREEGGYHGTGSNNYWGQGTLVTVSS VL: QSVLTQPPSVSAAPGQKVTISCSGSGSNVGGNDVSWYQQFPGTAPKLLIYDNSKRPSGIPDRFSGSKSGTSATLVITGLQTGDEADYYCGTWDSSLSVGVFGTGTKLTVL | 0.345 | 0.744 | 2.38
5 | ADI-41436 (antibody, V domains shown, IgG1; also called Ab 720) VH: EVQLLESGGGVVQPGRSLRLSCAASGFTFSDYAMHWVRQAPGKGLEWVALISFDGSNEYYADSVKGRFTISRDNSRNTVYLQVNTLRPDDTAVFYCARDSHLRLTTRGWGSFDYWGQGTLVTVSS VL: NFMLTQPHSVSESPGKTVTIACTRSSGSIARNYVQWYQQRPGRSPTMVIYEDNQRPSGVPDRFSGSIDTSSNSASLTISGLKTEDEADYYCQPYDPDNLVFGGGTKLTVL | 0.237 | 1.1 | > 25
6 | ADI-41418 (antibody, V domains shown, IgG1) VH: EVQLVESGGGLVKPGGSLRLSCAASGLSFTDAWMGWVRQAPGKGLEWVGHIKKKTDYGPTAYAAPVRGRFTVSRDDSKNTLYLQMTSLKTEDTAVYYCITERGYNFGYNDYFGVDVWGQGTLVTVSS VL: QPGLTQPPSVSVSPGQTARITCSGDALPKKYAYWYQQKSGQAPVMIIYEDNKRPSGIPERFSGSTSGTMATLTISGAQMEDEADYYCFSTDSGDDQSGVFGGGTRLTVL | 0.341 | 1.58 | > 25
7 | ADI-41446 (antibody, V domains shown, IgG1; also called Ab 730) VH: EVQLLESGGGLVQPGGSLRLSCAASGFTYYSYAMNWVRQAPGKGLEWVSAISGGGDNTFYAESVKGRFTISRDNAKNTLYLQMDSLRAEDTAVYYCAKDLQGYTSLYCFDYWGQGTLVTVSS VL: EIVMTQSPATLSLSPGERAALSCRASQSVFNYVAWYQQKPGQAPRLLIYDTSKRATGIPARFSGSGSGTDFTLTISSLEPEDFAVYYCQHRYNWPGLIFGGGTKVEIK | 0.722 | 3.6 | > 25
8 | ADI-41445 (antibody, V domains shown, IgG1) VH: QVQLVQSGAEVKRPGSSVKVSCKAFGGSFSNYAINWVRQAPGQGLEWMGGISPVLGTAIYAKRFQGKVTITADKFANTAYMDLSSLRFEDTAVYYCARSPPHVEFPLTKWFDPWGQGTLVTVSS VL: EIVMTQSPGTLSLSPGERATLSCRASQSVNSGYLAWYQHKPGRAPRLLIYGASNRATGVPDRFSGSGSGTDFTLTISRLEPEDFAVYYCQQYDNSLFTFGPGTKVDIK | 0.772 | 3.04 | > 25
9 | ADI-41443 (antibody, V domains shown, IgG1; also called Ab 727) VH: EVQLVESGGGVVQPGKSLRLSCAASGFTFSSYAMHWVRQAPGKGLEWVSVIWYEDSDKYYGDSVKGRFTISRDNSKNTLYLQMNSLRAEDTAVYYCARKSGGFGGLDYWGQGTLVTVSS VL: DIVMTQSPLSLPVTPGEPASISCKSSQSLLTANGYNYLDWYVQKPGQSPHVLISLGSNRASGVPDRFSGSGSGTDFTLKISRVEAEDVGVYYCMQAIETPITFGQGTRLEIK | 0.373 | 2.4 | > 25
10 | ADI-41444 (antibody, V domains shown, IgG1) VH: EVQLVESGPRLVKPSQTLSLTCTVSGGSIGTGDYHWTWIRQSPGKGLEWIGNIYYNGRTFYNPSLKGRGSISRDASKNQFSLNLSSVSAADTAVYYCARDRAAKGFDHWGQGTLVTVSS VL: DIQLTQSPSTLSASVGDRVTITCRASQNINGWLAWYQQKPGRVPKLLIYKASTLESGVPSRFSGSASGTEFTLTINNLLPDDFATYYCQQYNDYPYTFGQGTKVEIK | 0.541 | 3.01 | > 25
11 | ADI-41427 (antibody, V domains shown, IgG1) VH: QVQLVESGPGLVKPSETLSLTCTVSGGSIGGYYWSWIRQPPGKGLEWIGYMYYSGSTNYNPSLKSRVTMSVDTSKNQFSLKLTSVTAADTAVYYCARVLRFLVGGMDVWGQGTTVTVSS VL: QSVLIQPASVSGSPGQSITISCTGTSSDVGGYNYVSWYQQHPGKAPKLIIYEVSNRPSGVSNRFSGSKSGNTASLTISGLQAEDEADYYCNSYTTIATLVFGTGTKVTVL | 0.917 | 2.7 | > 25
12 | ADI-41414 (antibody, V domains shown, IgG1) VH: EVQLLESGGGLAQPGRSLKVSCAASGVTVTSTYMGWVRQAPGKGLQWVSVIYSDGTTYYADSVKGRFTISRDHYKNTLYLQMNSLRAEDTALYYCARGNRRTDFGYWGQGTLVTVSS VL: EIVMTQSPSTLSASVGDRVTITCRASQTISNWLAWYQQKPGKAPKLLIYQASTLESGVPSRFSGSGSGTEFTLTISSLQPDDFATYYCQQYNTYYTFGPGTKVEIK | 1.1 | 2.7 | > 25
13 | ADI-41429 (antibody, V domains shown, IgG1; also called Ab 714) VH: QVQLVQSGAEVKKPGSSVKVSCKASGGTFSSYAISWVRQAPGQGLEWMGGIIPIFGTVNYAQKFPGRVTITADESTSTAYMELSSLRSEDTAIYYCARDSPSYTGSLLFSQYYYGMDVWGQGTTVTVSS VL: QPVLTQPASVSGSPGQSITISCTGTSSDVGGYDYVSWYQHHPGKAPKLMIYEVSNRPSGVSNRFSGSKSGNTASLTISGLQAEDEADYYCSSFTTSSPRVFGTGTKLTVL | 1 | 3.62 | > 25
14 | ADI-41407 (antibody, V domains shown, IgG1) VH: EVQLVESGGGLVQPGGSLRLSCAASGFTFSSNAMSWVRQAPGKGLEWVSYISGGSATKSYADSVKGRFTISRDNSKNTLYLQMKSLRAEDTAVYYCVGGSAYYSGFDYWGQGTLVTVSS VL: DIVMTQSPSSLSASVGDRVTISCRASQDIRNYLAWYQQKPGKVPNLLIYAASTLESGVPSRFSGSGYGTDFTLTISGLQPEDVATYYCQKYDSAPPFTFGPGTKVDIK | 0.371 | 2.08 | > 25
15 | ADI-41405 (antibody, V domains shown, IgG1) VH: EVQLLESGGGLVQPGGSLRLSCAASGFSFSIYSMNWVRQAPGKGLEWISYITSTGSPTYYADSVKGRFTISRDNAKNSLYLQMSSLRAEDTAVYYCVTYCSSSSCPAEFDYWGQGTLVTVSS VL: EIVLTQSPATLSLSPGERATLSCRASQSVNSYLAWYQQKPGQAPRLLIYDASNRATGIPARFSGSGSGTDFTLTISSLEAEDFAVYYCQHRNNWPALTFGGGTKVEIK | 0.458 | 2.72 | > 25
16 | ADI-41415 (antibody, V domains shown, IgG1) VH: QVTLKESGPALVKPTQTLTLTCTFSGFSLSTSRTRVSWIRQPPGKALEWLARVDWDDDKFYNPVLKTRLSISKDPSKNQVVLTMTNVDPVDTATYYCVRMAHYGSGGYYVEYFQDWGQGTLVTVSS VL: DIQLTQSPASLSASAGDRVTITCRASQNINRYLNWYQQQSGKAPKLLIYAASILQSGVPSRFSGSGSGTDFTLTITSLQPEDFAIYYCQQSYTTPKYTFGQGTKVEIK | 0.644 | 1.08 | > 25
17 | ADI-41440 (antibody, V domains shown, IgG1; also called Ab 724) VH: EVQLVESGGGLVKPGGSLRLSCAVSGFTFSDYTMNWVRQAPGKGLEWVSSISGSGTYIYYGDSVKGQFTISRDNAKNSLYLQMNSLRAEDTAVYYCARELPAKTIFGVDFLGGTTAYDCWGQGTPVTVSS VL: EIVLTQSPATLSVSPGERATLSCRASQSVSSNLAWYQQKPGQAPRLLIYSATTRATGVPARFSGSGSGTEFTLTISSLRSEDFAVYYCQQYNNGGTFGPGTKVEIK | 1.23 | 3.18 | > 25
18 | ADI-41432 (antibody, V domains shown, IgG1) VH: QVQLVQSGAEVKKPGYSVKVSCKASGGTFSTFGISWVRQAPGLGLEWMGGIIPLFGTADYSKKYQGRVTITADESTSTGYMELNSLTPEDTAVYYCARSPGHLWSRYDAFEVWGQGTTVTVSS VL: QPVLTQPRSVSGSPGQSVTISCSGTSSDVGGYNYVSWYQQYPGKAPKLIIYDVNKRPSGVPDRFSGSKSDNTASLTISGLQADDESDYFCCSYAGSHTFEVFGTGTKVTVL | 0.286 | 2.05 | > 25
19 | ADI-41403 (antibody, V domains shown, IgG1) VH: EVQLVESGGGLVKPGGSLRLSCAASGFTFGTYTMNWVRQAPGKGLEWVSSISSSSSHIYYADSVKGRFTISRDNARKALYLQMNSLRPEDTAVYFCARFLGDYGGDGNTYYYYYGMDVWGQGTTVTVSS VL: EIVMTQSPLSLPVTPGEPASISCRSSQSLLHSNGKNYLDWYLQKPGQSPQLLIHLGSNRASGVPDRFSGSGSGTDFTLQISRVEAEDVGVYYCMQALQTPTFGGGTKLEIK | 0.841 | 3.04 | > 25
